Consider one molecule from paper PMC10311653.

The test deals with wildtype (WT) human interleukin-1β (human) (UniProt P01584). The test is described as follows: ELISA; antigen (100 ng) coated on the plate; scFv-mFc added in 3% skim milk in DPBST, 2 h at 37 °C; EC50.

B1: E64Kcr-H11-mFc (Fc fusion)
VH: EVQLQQSGAELVKPGASVRLSCTASGFNIKDYYMHWVKQRPEQGLEWIGWIDPENGDTEYAPKFQGKATMTADTSSNTAYLQLSSLTSEDTAVYYCNGYDDYWGQGTTLTVSS
VL: DIVMTQSQKFMSTSVGDRVSVTCKASQNVGTDVAWYQQKPGQSPKALIYSASYHYSGVPDRFTGTGSGTDFTLTISNVRSEDLAEYFCQQYNSYPYTFGGGTKLEIK
For orientation: EC50 means the midpoint of the concentration-response curve. Read a low EC50 as an effect from little substance. B1 displayed an EC50 of 17.4 nM. This counts as double-digit nanomolar.
